Results reported in paper PMC5007091 (Molecular Biology of the Cell, 2016).

Biological target: the molecule itself
Assay: split reporter

B1: Cdc10 (natural protein)
chain: MDPLSSVQPASYVGFDTITNQIEHRLLKKGFQFNIMVVGQSGLGKSTLINTLFASHLIDSATGDDISALPVTKTTEMKISTHTLVEDRVRLNINVIDTPGFGDFIDNSKAWEPIVKYIKEQHSQYLRKELTAQRERFITDTRVHAILYFLQPNGKELSRLDVEALKRLTEIANVIPVIGKSDTLTLDERTEFRELIQNEFEKYNFKIYPYDSEELTDEELELNRSVRSIIPFAVVGSENEIEINGETFRGRKTRWSAINVEDINQCDFVYLREFLIRTHLQDLIETTSYIHYEGFRARQLIALKENANSRSSAHMSSNAIQR
fluorescence at the bud neck, fold over the negative controls: > 20 fold
